Common to all, as to test: BLI
Series [1] concerns the target SARS-CoV-2 spike S1 subunit (SARS-CoV-2, UniProt P0DTC2 SEQ:1-670). Conditions: tags: His tag, SinoBiological 40591-V08B1; label: 5'-biotin.
In series [2] the target is SARS-CoV-2 spike RBD (SARS-CoV-2, UniProt P0DTC2 SEQ:1-223). Conditions: tags: His tag, SinoBiological 40592-V08H.
Series [3] deals with SARS-CoV spike S1 subunit (SARS-CoV, UniProt P59594 SEQ:14-667). Conditions: tags: SinoBiological.

Turning to CCAGTGTAGACTACTCAATGCGTGGGAAGGGTGGGTGGGAGCATTGAT (ssDNA) [S1_A3_F10], in series [1], the binding result was “binds”.

B1: S1_A8_F13 (ssDNA)
DNA: AATGCTGTGTTGACTTGATCCTGTGGTATATGGGTGGGAGGGTCGGGTACTATCCACAGGTCAAC
Take B1: the binding result in series [1] is given as “binds”.

B2: S1_A1-B (ssDNA)
DNA: CCAGTGTAGACTACTCAATGCGGCTGTGTGACTTGACCTCTGGATATGGGAGGGAGGGCGGGTACTATCCACAGGTCAACC
For the molecule B2, the binding result in series [1] is “binds”; in series [2] (label: 5' biotin), “binds”; in series [3] (label: 5' biotin), “no binding”.

B3: S1_E5 (ssDNA)
DNA: CCAGTGTAGACTACTCAATGCCACCTCCTTTTCCGTTTCTTGTATCATGCTACTATCCTGTGTACTATCCACAGGTCAACC
B3: the values for the binding result in series [1], in series [2] (label: 5'-biotin) and in series [3] (label: 5' biotin) were “no binding”, “binds” and “no binding”, respectively.

B4: S1_C1-A (ssDNA)
DNA: CCAGTGTAGACTACTCAATGCTGTGTTGACTTGATCCTGTGGTATTTGGGTGGGAGGGGCGGGTACTATCCACAGGTCAACC
As for B4, the binding result in series [1] is given as “binds”; in series [2] (label: 5' biotin), “binds”; in series [3] (label: 5'-biotin) it was “no binding”.

B5: S1_B12-B (ssDNA)
DNA: CCAGTGTAGACTACTCAATGCTGTGTTGACTTGATCCTGTGGTATATGGGTGGGAGGGATGGGTACTATCCACAGGTCAACC
For B5, the values for the binding result in series [1], in series [2] (label: 5'-biotin) and in series [3] (label: 5' biotin) were “no binding”, “binds” and “no binding”, respectively.

B6: S1_C3-A (ssDNA)
DNA: CCAGTGTAGACTACTCAATGCTGTGTTGACTTGATCCTGTGGCATATGGGTGGGAGGGCGGGTACTATCCACAGGTCAACC
With B6, the binding result in series [1] was “no binding”; in series [2] (label: 5'-biotin), “binds”; in series [3] (label: 5' biotin), “no binding”.

B7: S1_B4 (ssDNA)
DNA: CCAGTGTAGACTACTCAATGCTGTGTTGACTTGATCCTGTGGTATATGGGTGGGAGGGAGGGTACTATCCACAGGTCAACC
Consider B7, for which the binding result in series [1] was “binds”; in series [2] (label: 5' biotin), “binds”; in series [3] (label: 5' biotin), “no binding”.

B8: S1_B9 (ssDNA)
DNA: CCAGTGTAGACTACTCAATGCTGTGTTGACTTGATCCTGTGGTATATGGGTGGGAGGGCGGGTACTATCCACAGGTCAACC
On to B8, for which the figures for the binding result in series [1], in series [2] (label: 5' biotin) and in series [3] (label: 5' biotin) were “binds”, “binds” and “no binding”, respectively.

B9: S1_A3_F11 (ssDNA)
DNA: CCAGTGTAGACTACTCAATGCGTGGGAAGGGTGGGTGGGAGCATTGATAACTC
B9: in series [1], the binding result is on record as “binds”.

B10: S1_A9 (ssDNA)
DNA: CCAGTGTAGACTTACACCTGCAGTGTTCACGAGGGCCGGCGGTATATGGGCGGTTGATACGAGTACTATCCACAGGTCAACC
Take B10: the binding result in series [1] is reported as “binds”; in series [2] (label: 5' biotin) it was “binds”; in series [3] (label: 5' biotin), “no binding”.

B11: S1_D11-B (ssDNA)
DNA: CCAGTGTAGACTACTCAATGCCGGCCGGGAGGGAGGGGTGGGTAAAGCCGCGCAACATATAGTACTATCCACAGGTCAACC
Turning to B11, the binding result in series [1], in series [2] (label: 5'-biotin) and in series [3] (label: 5'-biotin) was “binds” each time.

On to ACTTGATCCTGTGGTATATGGGTGGGAGGGTCGGGT (ssDNA) [S1_A8_F20], for which the binding result in series [1] is on record as “binds”.

For GGTATATGGGTGGGAGGGTCGGGT (ssDNA) [S1_A8_F22], the binding result in series [1] is “binds”.

B12: S1_A6_F12 (ssDNA)
DNA: CCAGTGTAGACTACTCAATGCTGTTATGACTTGACCTTGGGTTATGGGTTTGGGCGGGAGGGTA
In the case of B12, in series [1], the binding result is listed as “binds”.

B13: S1_E6 (ssDNA)
DNA: CCAGTGTAGACTACTCAATGCCCAGTGGCGAGCGACTTTTTATGTAAGAACATCGATTTTCCATGGTACTATCCACAGGTCAACC
Turning to B13, the binding result is “no binding” in series [1], “binds” in series [2] (label: 5'-biotin) and “no binding” in series [3] (label: 5' biotin).

B14: S1_A3-B (ssDNA)
DNA: CCAGTGTAGACTACTCAATGCCGATGGGTCGGGGGGGTGGGTAGGCATTGATCGCTCCTTTCGTACTATCCACAGGTCAACC
With B14, the binding result in series [1] is “binds”; in series [2] (label: 5' biotin), “binds”; in series [3] (label: 5'-biotin), “no binding”.

B15: S1_C8 (ssDNA)
DNA: CCAGTGTAGACTACTCAATGCCGATGGGTCGGGGGGGTGGGTAGGCATTGATCATTCCTTTCGTACTATCCACAGGTCAACC
Take B15: the binding result is “binds” in series [1], “binds” in series [2] (label: 5' biotin) and “no binding” in series [3] (label: 5'-biotin).

B16: S1_A1-A (ssDNA)
DNA: CCAGTGTAGACTACTCAATGCCGATGGGTCGGGTGGGTGGGTAGGCATTGATCGCTCCTTCCGTACTATCCACAGGTCAACC
With B16, the binding result in series [1] is given as “binds”; in series [2] (label: 5' biotin), “binds”; in series [3] (label: 5' biotin), “no binding”.

B17: S1_B3 (ssDNA)
DNA: CCAGTGTAGACTACTCAATGCCGATGGGTCGGGGGGGTGGGTAGGCATTGATTCCTCCTTTCGTACTATCCACAGGTCAACC
As for B17, the binding result in series [1] was “binds”; in series [2] (label: 5' biotin), “binds”; in series [3] (label: 5' biotin), “no binding”.

B18: S1_D6 (ssDNA)
DNA: CCAGTGTAGACTACTCAATGCTACTGACTCATCTGCCGAATCCAAACCCGACCAGTCCACGGTACTATCCACAGGTCAACC
For the molecule B18, the binding result in series [1] is listed as “no binding”; in series [2] (label: 5'-biotin) it was “binds”; in series [3] (label: 5' biotin), “no binding”.

B19: S1_A3_F12 (ssDNA)
DNA: CCAGTGTAGACTACTCAATGCGTGGGAAGGGTGGGTGGGAGCATTGATAACTCGGAGGAGTGTA
On to B19, for which the binding result in series [1] is “binds”.

B20: S1_A8_F12 (ssDNA)
DNA: CCAGTGTAGACTACTCAATGCTGTGTTGACTTGATCCTGTGGTATATGGGTGGGAGGGTCGGGT
For B20, in series [1], the binding result is on record as “binds”.

B21: S1_A12 (ssDNA)
DNA: CCAGTGTAGACTACTCAATGCCGTGTGGTGACCTTGATCCTGTGGTATATGGGTGGGAGGGGCGGGTACTATCCACAGGTCAACC
B21: the binding result in series [1] is given as “binds”; in series [2] (label: 5' biotin) it was “binds”; in series [3] (label: 5' biotin), “no binding”.

Take CCAGTGTAGACTACTCAATGCGTGGGAAGGGTGGGTGGGA (ssDNA) [S1_A3_F9]: the binding result in series [1] is given as “binds”.

B22: S1_A8_F14 (ssDNA)
DNA: ACTTGATCCTGTGGTATATGGGTGGGAGGGTCGGGTACTATCCACAGGTCAAC
For the molecule B22, the binding result in series [1] is “binds”.

B23: S1_A4 (ssDNA)
DNA: CCAGTGTAGACTACTCAATGCGTGGGAAGGGTGGGCGGGAGCATTGATAACTCGGAGGAGCGTACTATCCACAGGTCAACC
Consider B23, for which the binding result is “binds” in series [1], “binds” in series [2] (label: 5' biotin) and “no binding” in series [3] (label: 5' biotin).

B24: S1_E3 (ssDNA)
DNA: CCAGTGTAGACTACTCAATGCCGATGGGTCGGGTGGGTGGGTAGGCATTGATCGCTCCTCCGTACTATCCACAGGTCAACC
As to B24, the binding result was “binds” in series [1], “binds” in series [2] (label: 5'-biotin) and “no binding” in series [3] (label: 5'-biotin).

B25: S1_B1 (ssDNA)
DNA: CCAGTGTAGACTACTCAATGCCGATGGGTCGGGTGGGTGGGTAGGCATTGATCGCTCCTCAGTACTATCCACAGGTCAACC
For B25, the binding result in series [1] is given as “binds”; in series [2] (label: 5' biotin), “binds”; in series [3] (label: 5' biotin), “no binding”.

B26: S1_A6_F14 (ssDNA)
DNA: ACTTGACCTTGGGTTATGGGTTTGGGCGGGAGGGTACTATCCACAGGTCAACC
As to B26, in series [1], the binding result is recorded as “binds”.

For AATGCGTGGGAAGGGTGGGTGGGAG (ssDNA) [S1_A3_F17], the binding result in series [1] is “binds”.

For GTATATGGGTGGGAGGGTCGGGTACTATCCACAGGTCAAC (ssDNA) [S1_A8_F2], in series [1], the binding result is on record as “binds”.

B27: S1_A6_F13 (ssDNA)
DNA: AATGCTGTTATGACTTGACCTTGGGTTATGGGTTTGGGCGGGAGGGTACTATCCACAGGTCAACC
As to B27, the binding result in series [1] is “binds”.

(Values after US20230228751 (APTAMER DIAGNOSTICS LIMITED, published 2023).)
